# Source: patent publication US20250312499A1, “KISSPEPTIN RECEPTOR (KISS1R) TARGETED THERAPEUTICS AND USES THEREOF” (priority 2024, published 2025)
# Numbered stars: 1 amine (or outer) side, 2 acyl side, 3 side chain; on linkers, the order of the positions; unused ones are H or OH. Square brackets hold non-standard residues; d marks the D form. * marks the point of attachment. X2 = 4‑amino‑1‑((3-fluoro-4-methylbenzyl)glycyl)piperidine‑4‑carboxylic acid, Cc1ccc(CN(CC(=O)N2CCC(N[*:1])(C(=O)[*:2])CC2)[*:3])cc1F; DOTA = O=C(O)CN1CCN(CC(=O)O)CCN(CC(=O)*)CCN(CC(=O)O)CC1; Piperidine‑2‑carboxylic_acid(MeGly) = not defined here; Butanoyl(4-(4-I-phenyl)) = O=C(CCCc1ccc(I)cc1)*; Api(1-amidino) = N=C(N)N1CCC(N)(C(=O)O)CC1; Bip = N[C@@H](Cc1ccc(-c2ccccc2)cc1)C(=O)O; Phe(3-F) = N[C@@H](Cc1cccc(F)c1)C(=O)O; d2Nal = N[C@H](Cc1ccc2ccccc2c1)C(=O)O; Hyp = O=C(O)[C@@H]1C[C@@H](O)CN1; 4Pal = N[C@@H](Cc1ccncc1)C(=O)O; d4Pal = N[C@H](Cc1ccncc1)C(=O)O; Cha = N[C@@H](CC1CCCCC1)C(=O)O; d(β3hD) = NC(CC(=O)O)CC(=O)O; 4Amb = NCc1ccc(C(=O)O)cc1; Pip = O=C(O)[C@@H]1CCCCN1; Octanoyl = CCCCCCCC(=O)*; Ahx = NCCCCCC(=O)O; azaGly = NNC(=O)O; Sar = CNCC(=O)O
# B1: Compound 337 (peptide)
# peptide: {DOTA-Ahx}-[dK](Butanoyl(4-(4-I-phenyl)))[Ahx][dY][d2Nal]NTF[azaGly]L[Api(1-amidino)]W-NH2
# SMILES: CC(C)C[C@H](NC(=O)NNC(=O)[C@H](Cc1ccccc1)NC(=O)[C@@H](NC(=O)[C@H](CC(N)=O)NC(=O)[C@@H](Cc1ccc2ccccc2c1)NC(=O)[C@@H](Cc1ccc(O)cc1)NC(=O)CCCCCNC(=O)[C@@H](CCCCNC(=O)CCCc1ccc(I)cc1)NC(=O)CCCCCNC(=O)CN1CCN(CC(=O)O)CCN(CC(=O)O)CCN(CC(=O)O)CC1)[C@@H](C)O)C(=O)NC1(C(=O)N[C@@H](Cc2c[nH]c3ccccc23)C(N)=O)CCN(C(=N)N)CC1
# B2: Compound 198 (peptide)
# peptide: {DOTA}-[Ahx][dY][Bip]NTF[azaGly]L[Api(1-amidino)]W-NH2
# SMILES: CC(C)C[C@H](NC(=O)NNC(=O)[C@H](Cc1ccccc1)NC(=O)[C@@H](NC(=O)[C@H](CC(N)=O)NC(=O)[C@H](Cc1ccc(-c2ccccc2)cc1)NC(=O)[C@@H](Cc1ccc(O)cc1)NC(=O)CCCCCNC(=O)CN1CCN(CC(=O)O)CCN(CC(=O)O)CCN(CC(=O)O)CC1)[C@@H](C)O)C(=O)NC1(C(=O)N[C@@H](Cc2c[nH]c3ccccc23)C(N)=O)CCN(C(=N)N)CC1
# B3: Compound 311 (peptide)
# peptide: {DOTA-Ahx}-[dY][Hyp]NTF[azaGly]L[Api(1-amidino)]W-NH2
# SMILES: CC(C)C[C@H](NC(=O)NNC(=O)[C@H](Cc1ccccc1)NC(=O)[C@@H](NC(=O)[C@H](CC(N)=O)NC(=O)[C@@H]1C[C@@H](O)CN1C(=O)[C@@H](Cc1ccc(O)cc1)NC(=O)CCCCCNC(=O)CN1CCN(CC(=O)O)CCN(CC(=O)O)CCN(CC(=O)O)CC1)[C@@H](C)O)C(=O)NC1(C(=O)N[C@@H](Cc2c[nH]c3ccccc23)C(N)=O)CCN(C(=N)N)CC1
# B4: Compound 310 (peptide)
# peptide: {DOTA-Ahx}-[dK](Butanoyl(4-(4-I-phenyl)))[dY][d2Nal]NTF[azaGly]L[Api(1-amidino)]F-NH2
# SMILES: CC(C)C[C@H](NC(=O)NNC(=O)[C@H](Cc1ccccc1)NC(=O)[C@@H](NC(=O)[C@H](CC(N)=O)NC(=O)[C@@H](Cc1ccc2ccccc2c1)NC(=O)[C@@H](Cc1ccc(O)cc1)NC(=O)[C@@H](CCCCNC(=O)CCCc1ccc(I)cc1)NC(=O)CCCCCNC(=O)CN1CCN(CC(=O)O)CCN(CC(=O)O)CCN(CC(=O)O)CC1)[C@@H](C)O)C(=O)NC1(C(=O)N[C@@H](Cc2ccccc2)C(N)=O)CCN(C(=N)N)CC1
# B5: Compound 301 (peptide)
# peptide: {DOTA-Ahx}-[d2Nal]NTF[azaGly]L[Api(1-amidino)]F-NH2
# SMILES: CC(C)C[C@H](NC(=O)NNC(=O)[C@H](Cc1ccccc1)NC(=O)[C@@H](NC(=O)[C@H](CC(N)=O)NC(=O)[C@@H](Cc1ccc2ccccc2c1)NC(=O)CCCCCNC(=O)CN1CCN(CC(=O)O)CCN(CC(=O)O)CCN(CC(=O)O)CC1)[C@@H](C)O)C(=O)NC1(C(=O)N[C@@H](Cc2ccccc2)C(N)=O)CCN(C(=N)N)CC1
# B6: Compound 317 (peptide)
# peptide: {DOTA-Ahx}-[dY][d2Nal]NT[Cha][azaGly]L[Api(1-amidino)]W-NH2
# SMILES: CC(C)C[C@H](NC(=O)NNC(=O)[C@H](CC1CCCCC1)NC(=O)[C@@H](NC(=O)[C@H](CC(N)=O)NC(=O)[C@@H](Cc1ccc2ccccc2c1)NC(=O)[C@@H](Cc1ccc(O)cc1)NC(=O)CCCCCNC(=O)CN1CCN(CC(=O)O)CCN(CC(=O)O)CCN(CC(=O)O)CC1)[C@@H](C)O)C(=O)NC1(C(=O)N[C@@H](Cc2c[nH]c3ccccc23)C(N)=O)CCN(C(=N)N)CC1
# B7: Compound 300 (peptide)
# peptide: {DOTA-Ahx}-[dY][d2Nal]NTF[azaGly]L[Api(1-amidino)]F-NH2
# SMILES: CC(C)C[C@H](NC(=O)NNC(=O)[C@H](Cc1ccccc1)NC(=O)[C@@H](NC(=O)[C@H](CC(N)=O)NC(=O)[C@@H](Cc1ccc2ccccc2c1)NC(=O)[C@@H](Cc1ccc(O)cc1)NC(=O)CCCCCNC(=O)CN1CCN(CC(=O)O)CCN(CC(=O)O)CCN(CC(=O)O)CC1)[C@@H](C)O)C(=O)NC1(C(=O)N[C@@H](Cc2ccccc2)C(N)=O)CCN(C(=N)N)CC1
# B8: Compound 171 (peptide)
# peptide: {DOTA}-ENT[Phe(3-F)][azaGly]L[X2][4Pal]-NH2
# SMILES: Cc1ccc(CNCC(=O)N2CCC(NC(=O)[C@H](CC(C)C)NC(=O)NNC(=O)[C@H](Cc3cccc(F)c3)NC(=O)[C@@H](NC(=O)[C@H](CC(N)=O)NC(=O)[C@H](CCC(=O)O)NC(=O)CN3CCN(CC(=O)O)CCN(CC(=O)O)CCN(CC(=O)O)CC3)[C@@H](C)O)(C(=O)N[C@@H](Cc3ccncc3)C(N)=O)CC2)cc1F
# B9: Compound 12 (peptide)
# peptide: {DOTA-Ahx}-F[Sar]L[X2]W-NH2
# SMILES: Cc1ccc(CNCC(=O)N2CCC(NC(=O)[C@H](CC(C)C)NC(=O)CN(C)C(=O)[C@H](Cc3ccccc3)NC(=O)CCCCCNC(=O)CN3CCN(CC(=O)O)CCN(CC(=O)O)CCN(CC(=O)O)CC3)(C(=O)N[C@@H](Cc3c[nH]c4ccccc34)C(N)=O)CC2)cc1F
# B10: Compound 226 (peptide)
# peptide: Octanoyl-K(DOTA)NTF[azaGly]L[Api(1-amidino)][4Pal]-NH2
# SMILES: CCCCCCCC(=O)N[C@@H](CCCCNC(=O)CN1CCN(CC(=O)O)CCN(CC(=O)O)CCN(CC(=O)O)CC1)C(=O)N[C@@H](CC(N)=O)C(=O)N[C@H](C(=O)N[C@@H](Cc1ccccc1)C(=O)NNC(=O)N[C@@H](CC(C)C)C(=O)NC1(C(=O)N[C@@H](Cc2ccncc2)C(N)=O)CCN(C(=N)N)CC1)[C@@H](C)O
# B11: Compound 13 (peptide)
# peptide: {DOTA-Ahx}-[dA][dA][dA][dA][dA]F[azaGly]L[X2]W-NH2
# SMILES: Cc1ccc(CNCC(=O)N2CCC(NC(=O)[C@H](CC(C)C)NC(=O)NNC(=O)[C@H](Cc3ccccc3)NC(=O)[C@@H](C)NC(=O)[C@@H](C)NC(=O)[C@@H](C)NC(=O)[C@@H](C)NC(=O)[C@@H](C)NC(=O)CCCCCNC(=O)CN3CCN(CC(=O)O)CCN(CC(=O)O)CCN(CC(=O)O)CC3)(C(=O)N[C@@H](Cc3c[nH]c4ccccc34)C(N)=O)CC2)cc1F
# B12: Compound 260 (peptide)
# peptide: {DOTA-4Amb}-F[azaGly][dL][X2]W-NH2
# SMILES: Cc1ccc(CNCC(=O)N2CCC(NC(=O)[C@@H](CC(C)C)NC(=O)NNC(=O)[C@H](Cc3ccccc3)NC(=O)c3ccc(CNC(=O)CN4CCN(CC(=O)O)CCN(CC(=O)O)CCN(CC(=O)O)CC4)cc3)(C(=O)N[C@@H](Cc3c[nH]c4ccccc34)C(N)=O)CC2)cc1F
# Target: human kisspeptin receptor (KISS1R) (human) (UniProt Q969F8)
# Sequence (Q969F8 whole entry): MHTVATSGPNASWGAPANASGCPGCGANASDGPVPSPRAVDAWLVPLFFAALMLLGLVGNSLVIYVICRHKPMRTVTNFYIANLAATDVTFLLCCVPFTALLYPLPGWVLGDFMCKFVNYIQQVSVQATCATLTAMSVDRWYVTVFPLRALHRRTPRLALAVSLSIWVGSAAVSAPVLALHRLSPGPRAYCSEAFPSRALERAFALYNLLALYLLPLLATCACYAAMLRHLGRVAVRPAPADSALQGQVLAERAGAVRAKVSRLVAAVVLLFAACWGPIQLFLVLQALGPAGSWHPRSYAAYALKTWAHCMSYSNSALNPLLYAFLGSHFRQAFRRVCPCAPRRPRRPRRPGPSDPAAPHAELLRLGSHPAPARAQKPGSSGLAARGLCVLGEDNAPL
# Experiment: radioligand competition, hKISS1R membranes; legend: A is <10 nM
row,Ki [nM],Binder
1,< 10,B1
2,< 10,{DOTA}-[Ahx][dY][d2Nal]NTF[azaGly]L[Piperidine‑2‑carboxylic_acid(MeGly)]W-NH2 (not fully specified; reading uncertain) [Compound 201]
3,< 10,{DOTA-Ahx}-[dY][d2Nal]NTF[azaGly]L[4‑amino‑1‑((4-iodobenzyl)glycyl)piperidine‑4‑carboxylic acid][dW]-NH2 [Compound 371]
4,< 10,{DOTA-Ahx}-[dY][d2Nal]NTF[azaGly]L[4‑amino‑1‑(octylglycyl)piperidine‑4‑carboxylic acid][dW]-NH2 [Compound 374]
5,< 10,B2
6,< 10,{DOTA}-[dY][3‑(9-anthryl)alanine]NTF[azaGly]L[Api(1-amidino)][4Pal]-NH2 [Compound 221]
7,< 10,{DOTA-Ahx}-[dY][d2Nal]NTF[azaGly]L[Api(1-amidino)]W-NH2 [Compound 269]
8,< 10,B3
9,< 10,B4
10,< 10,{DOTA-Ahx}-[dY][d2Nal]NTF[azaGly]L[Pip][dW]-NH2 [Compound 339]
11,< 10,{DOTA-Ahx}-[dK](4‑(p-tolyl)butanoyl)[dY][d2Nal]NTF[azaGly]L[Api(1-amidino)]F-NH2 [Compound 309]
12,< 10,B5
13,< 10,B6
14,< 10,B7
15,< 10,{DOTA-Ahx}-[dY][3‑(9-anthryl)alanine]NTF[azaGly]L[Api(1-amidino)][4Pal]-NH2 [Compound 222]
16,< 10,{DOTA-Ahx}-[dY][d4Pal]NTF[azaGly]L[Apc(OMe)][4Pal]-NH2 [Compound 299]

# Target: human kisspeptin receptor (KISS1R) (human), Q969F8
# Sequence (Q969F8 whole entry): as above
# Experiment: radioligand competition, hKISS1R membranes; legend: B is 10-100 nM
row,Ki [nM],Binder
1,10 to 100,{DOTA}-[d(β3hD)]NT[Phe(3-F)][azaGly]L[X2][4Pal]-NH2 [Compound 230]
2,10 to 100,{DOTA-Ahx}-F[azaGly]L[4‑amino‑1‑(4-(p-tolyl)butanoyl)piperidine‑4‑carboxylic acid]W-NH2 [Compound 7]
3,10 to 100,B8
4,10 to 100,B9
5,10 to 100,{DOTA-trans‑4‑(aminomethyl)cyclohexane‑1‑carboxylic acid}-[D‑3‑aminopentanedioic acid]NT[Phe(3-F)][azaGly]L[X2][4Pal]-NH2 [Compound 231]
6,10 to 100,B10
7,10 to 100,B11
8,10 to 100,B12
